The results in this text go back to US5486595A, “Tumor necrosis factor inhibitors” (Centecor, Inc., priority 1994, dated 1996).

Where a SMILES comes first, the peptide text is derived from it. Where no end group is shown, it is not given here.

The target of the test is T1, human TNFα (Homo sapiens, UniProt P01375).
T1 construct: purchased Biosource, Camarillo, Calif
Briefly: p55 Receptor/IgG Fusion Protein Binding Assay (inhibition of TNFα capture by p55-Ig coated plate). The conditions noted are these: for inhibition at 1000 µM / inhibition of binding of TNFα to p55TNFr-IgG chimeric construct: peptide 1 mM, TNFα 25 ng/ml; for inhibition at 1000 µM: read-out: inhibition of binding of TNFα to p55TNFr-IgG chimeric construct.

Broadly, the inhibition is how much of the control response was suppressed.

T1 sequence (P01375 77-233 limits assumed): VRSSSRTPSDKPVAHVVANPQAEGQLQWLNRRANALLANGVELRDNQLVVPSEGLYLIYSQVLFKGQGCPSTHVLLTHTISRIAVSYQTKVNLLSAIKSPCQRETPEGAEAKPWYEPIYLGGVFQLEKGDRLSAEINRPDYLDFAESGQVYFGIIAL

For `CC(C)C[C@H](NC(=O)[C@H](Cc1c[nH]cn1)NC(=O)[C@@H](NC(=O)[C@H](C)NC(=O)CN)C(C)C)C(=O)N1CCC[C@H]1C(=O)N[C@@H](CCC(N)=O)C(=O)N1CCC[C@H]1C(=O)N[C@H](C(=O)N[C@@H](CO)C(=O)N[C@H](C(=O)N[C@@H](CCCNC(=N)N)C(=O)N[C@@H](CO)C(=O)N[C@@H](CCC(N)=O)C(=O)N[C@@H](Cc1c[nH]cn1)C(N)=O)[C@@H](C)O)C(C)C` [SEQ ID NO:55] (H-GAVHLPQPVSTRSQH-NH2), the inhibition at 1000 µM is 60%.

Regarding `CC(C)C[C@H](NC(=O)[C@@H](N)Cc1c[nH]cn1)C(=O)N1CCC[C@H]1C(=O)N[C@@H](CCC(N)=O)C(=O)N1CCC[C@H]1C(=O)N[C@H](C(=O)N[C@@H](CO)C(=O)N[C@H](C(=O)N[C@@H](CCCNC(=N)N)C(=O)N[C@@H](CO)C(=O)N[C@@H](CCC(N)=O)C(=O)N[C@@H](Cc1c[nH]cn1)C(=O)N[C@H](C(=O)N[C@@H](CCC(N)=O)C(=O)N1CCC[C@H]1C(N)=O)[C@@H](C)O)[C@@H](C)O)C(C)C` [SEQ ID NO:56] (H-HLPQPVSTRSQHTQP-NH2), the inhibition at 1000 µM came to 67%.

In the case of `C[C@@H](O)[C@H](NC(=O)[C@H](CO)NC(=O)[C@@H]1CCCN1C(=O)[C@H](CCC(=O)O)NC(=O)[C@@H]1CCCN1C(=O)[C@@H](NC(=O)[C@@H]1CCCN1C(=O)[C@H](CCC(N)=O)NC(=O)[C@@H](NC(=O)[C@H](Cc1c[nH]cn1)NC(=O)[C@H](CCC(N)=O)NC(=O)[C@H](CO)NC(=O)[C@H](CCCNC(=N)N)NC(=O)[C@@H](NC(=O)[C@@H](N)CO)[C@@H](C)O)[C@@H](C)O)[C@@H](C)O)C(N)=O` [SEQ ID NO:57] (H-STRSQHTQPTPEPST-NH2), the inhibition at 1000 µM was 72%.

On to `C[C@H](NC(=O)[C@@H](NC(=O)[C@H](CO)NC(=O)[C@@H]1CCCN1C(=O)[C@H](CCC(=O)O)NC(=O)[C@@H]1CCCN1C(=O)[C@@H](NC(=O)[C@@H]1CCCN1C(=O)[C@H](CCC(N)=O)NC(=O)[C@@H](NC(=O)[C@H](Cc1c[nH]cn1)NC(=O)[C@H](CCC(N)=O)NC(=O)[C@@H](N)CO)[C@@H](C)O)[C@@H](C)O)[C@@H](C)O)C(=O)N1CCC[C@H]1C(=O)N[C@@H](CO)C(N)=O` [SEQ ID NO:58] (H-SQHTQPTPEPSTAPS-NH2), for which the inhibition at 1000 µM came to 72%.

For the compound `C[C@H](NC(=O)[C@@H](NC(=O)[C@H](CO)NC(=O)[C@@H]1CCCN1C(=O)[C@H](CCC(=O)O)NC(=O)[C@@H]1CCCN1C(=O)[C@@H](NC(=O)[C@@H]1CCCN1C(=O)[C@H](CCC(N)=O)NC(=O)[C@@H](N)[C@@H](C)O)[C@@H](C)O)[C@@H](C)O)C(=O)N1CCC[C@H]1C(=O)N[C@@H](CO)C(=O)N[C@H](C(=O)N[C@@H](CO)C(=O)N[C@@H](Cc1ccccc1)C(N)=O)[C@@H](C)O` [SEQ ID NO:59] (H-TQPTPEPSTAPSTSF-NH2), the inhibition at 1000 µM turned out to be 73%.

With `CC(C)C[C@H](NC(=O)[C@H](Cc1ccccc1)NC(=O)[C@H](CO)NC(=O)[C@@H](NC(=O)[C@H](CO)NC(=O)[C@@H]1CCCN1C(=O)[C@H](C)NC(=O)[C@@H](NC(=O)[C@H](CO)NC(=O)[C@@H]1CCCN1C(=O)[C@H](CCC(=O)O)NC(=O)[C@@H]1CCCN1C(=O)[C@@H](N)[C@@H](C)O)[C@@H](C)O)[C@@H](C)O)C(=O)N[C@@H](CC(C)C)C(=O)N1CCC[C@H]1C(N)=O` [SEQ ID NO:60] (H-TPEPSTAPSTSFLLP-NH2), the inhibition at 1000 µM was 73%.

Turning to `CSCC[C@H](NC(=O)[C@@H]1CCCN1C(=O)[C@H](CC(C)C)NC(=O)[C@H](CC(C)C)NC(=O)[C@H](Cc1ccccc1)NC(=O)[C@H](CO)NC(=O)[C@@H](NC(=O)[C@H](CO)NC(=O)[C@@H]1CCCN1C(=O)[C@H](C)NC(=O)[C@@H](NC(=O)[C@H](CO)NC(=O)[C@@H]1CCCN1)[C@@H](C)O)[C@@H](C)O)C(=O)NCC(=O)N1CCC[C@H]1C(N)=O` [SEQ ID NO:61] (H-PSTAPSTSFLLPMGP-NH2), the inhibition at 1000 µM came to 72%.

Regarding `CSCC[C@H](NC(=O)[C@@H]1CCCN1C(=O)[C@H](CC(C)C)NC(=O)[C@H](CC(C)C)NC(=O)[C@H](Cc1ccccc1)NC(=O)[C@H](CO)NC(=O)[C@@H](NC(=O)[C@H](CO)NC(=O)[C@@H]1CCCN1C(=O)[C@H](C)N)[C@@H](C)O)C(=O)NCC(=O)N1CCC[C@H]1C(=O)N[C@@H](CO)C(=O)N1CCC[C@H]1C(=O)N1CCC[C@H]1C(N)=O` [SEQ ID NO:62] (H-APSTSFLLPMGPSPP-NH2), the inhibition at 1000 µM came out at 62%.

As to “SEQ ID NO:34: peptide of the invention that inhibits TNFα; sequence not printed (SDTVADSAEDSTYTQ)”, the “inhibition of binding of TNFα to p55TNFr-IgG chimeric construct” value (“inhibition of binding of TNFα” below) is on record as 65%.

Take “SEQ ID NO:35: peptide of the invention that inhibits TNFα; sequence not printed (VADSAEDSTYTQLWN)”: the “inhibition of binding of TNFα” value is on record as 72%.

Take “SEQ ID NO:36: peptide of the invention that inhibits TNFα; sequence not printed (SAEDSTYTQLWNWVP)”: the “inhibition of binding of TNFα” value was determined as 77%.

For “SEQ ID NO:37: peptide of the invention that inhibits TNFα; sequence not printed (DSTYTQLWNWVPEAL)”, the “inhibition of binding of TNFα” value came out at 77%.

For “SEQ ID NO:38: peptide of the invention that inhibits TNFα; sequence not printed (YTQLWNWVPEALSAG)”, the “inhibition of binding of TNFα” value was determined as 64%.

For “SEQ ID NO:39: peptide of the invention that inhibits TNFα; sequence not printed (LWNWVPEALSAGSRA)”, the “inhibition of binding of TNFα” value is recorded as 42%.

Take “SEQ ID NO:40: peptide of the invention that inhibits TNFα; sequence not printed (WVPEALSAGSRASSD)”: the “inhibition of binding of TNFα” value is given as 72%.

As to “SEQ ID NO:41: peptide of the invention that inhibits TNFα; sequence not printed (EALSAGSRASSDQVE)”, the “inhibition of binding of TNFα” value turned out to be 68%.

For “SEQ ID NO:42: peptide of the invention that inhibits TNFα; sequence not printed (SSDQVETQAATREQN)”, the “inhibition of binding of TNFα” value was 40%.

As for “SEQ ID NO:43: peptide of the invention that inhibits TNFα; sequence not printed (PGWYAALSKQEGARL)”, the “inhibition of binding of TNFα” value was found to be 37%.

On to “SEQ ID NO:44: peptide of the invention that inhibits TNFα; sequence not printed (AAPGTFSNTTSSTDI)”, for which the “inhibition of binding of TNFα” value turned out to be 28%.

Take “SEQ ID NO:45: peptide of the invention that inhibits TNFα; sequence not printed (GTFSNTTSSTDIARP; also: C-terminal blocking group)”: the “inhibition of binding of TNFα” value was determined as 73%. Moreover, where the note is “various concentrations of peptide”, the “dose dependent inhibition of TNFα (FIG. 1)” value is reported as “dose dependent inhibition”.

With “SEQ ID NO:46: peptide of the invention that inhibits TNFα; sequence not printed (SNTTSSTDIARPHQI)”, the “inhibition of binding of TNFα” value turned out to be 66%.

In the case of “SEQ ID NO:47: peptide of the invention that inhibits TNFα; sequence not printed (TSSTDIARPHQIANV)”, the “inhibition of binding of TNFα” value came to 29%.

On to “SEQ ID NO:48: peptide of the invention that inhibits TNFα; sequence not printed (TDIARPHQIANVVAI)”, for which the “inhibition of binding of TNFα” value stood at 27%.

On to “SEQ ID NO:49: peptide of the invention that inhibits TNFα; sequence not printed (ARPHQIANVVAIPGN)”, for which the “inhibition of binding of TNFα” value is listed as 26%.

Turning to “SEQ ID NO:50: peptide of the invention that inhibits TNFα; sequence not printed (VAIPGNASRDAVATS)”, the “inhibition of binding of TNFα” value was determined as 29%.

With “SEQ ID NO:51: peptide of the invention that inhibits TNFα; sequence not printed (PGNASRDAVATSTSP)”, the “inhibition of binding of TNFα” value was 68%.

In the case of “SEQ ID NO:52: peptide of the invention that inhibits TNFα; sequence not printed (ASRDAVATSTSPTRS)”, the “inhibition of binding of TNFα” value came to 63%.

As for “SEQ ID NO:53: peptide of the invention that inhibits TNFα; sequence not printed (DAVATSTSPTRSMAP)”, the “inhibition of binding of TNFα” value worked out at 63%.
